Reference: patent US20250304703A1 (AKESO BIOPHARMA, published 2025)

Key:
human IL-4RA-hFc [1] = molecular target: T1, human IL-4RA-hFc (human, UniProt P24394 26-232); experiment: indirect ELISA, coated IL-4RA-hFc 1 ug/mL, 4-parameter fit
T1 construct: mature; no linker is stated
T1 sequence (looked up): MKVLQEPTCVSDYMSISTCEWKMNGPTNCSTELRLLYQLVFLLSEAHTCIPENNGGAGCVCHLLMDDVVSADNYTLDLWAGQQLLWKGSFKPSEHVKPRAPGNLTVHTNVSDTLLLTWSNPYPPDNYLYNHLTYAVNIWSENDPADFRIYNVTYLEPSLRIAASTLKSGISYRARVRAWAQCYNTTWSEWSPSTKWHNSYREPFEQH
Protocol: Procedures: The Elisa plates were coated with human IL-4RA-hFc or human IL-4RA-mFc and were incubated, and the target antibodies were added after blocking. […] The plates were incubated and washed before TMB (Neogen, 308177) was added for chromogenic reaction. At the end of the reaction, the absorbance at 450 nm was measured by a microplate reader. The data were analyzed and processed by SoftMax Pro 6.2.1.

human IL-4RA-hFc [2] = molecular target: T1, human IL-4RA-hFc; experiment: competitive ELISA, competitor IL4-N-His, coated IL-4RA-hFc, 4-parameter fit
Protocol: (§1) The Elisa plates were coated with human IL-4RA-hFc and blocked before the target antibodies were added. […] After the plates were washed, mouse anti-His, HRP (purchased from CoWin Biosciences, Cat No. CW0285A) was added for incubation. The plates were subjected to another wash. A chromogenic reaction was performed by adding TMB (Neogen, 308177) and was then terminated. The Elisa plates were put into a microplate reader immediately, and the OD value of each well in the Elisa plates was read at 450 nm. The data were analyzed and processed by SoftMax Pro 6.2.1.
By 4-parameter logistic regression of absorbance vs. antibody concentration, the blocking EC₅₀ of the antibodies was calculated.

human IL-4RA-hFc [3] = molecular target: T1, human IL-4RA-hFc; experiment: competitive ELISA, competitor IL4-N-His (anti-His signal); antibody 3 ug/mL
Protocol: as §1

B1: anti-human IL-4RA antibody 13E5 (antibody, V domains shown)
VH: EVQLQQSGPELVKPGASVKISCKTSGYTFTEYTIHWVKQNHGKSLEWIGGINPNNGGTVYNQNFKGKATLTVDKSSSTAYMELRSLTSEDSAVYYCARVRRGMDYWGQGTSVTVSS
VL: DIVMTQSHKFMSTSVGDRVSITCKASQDVTTAVAWYQQKPGQSPKLLIYSASYRYTGVPDRFTGSGSGTDFTFTISSVQAEDLAVYYCQQHYSAPWTFGGGTNLEIK
notes: also called murine antibody 13E5; monoclonal antibody of hybridoma cell line LT008 (IL-4RA-13E5), CCTCC NO: C2018131
EC50 (human IL-4RA-hFc [1]): 0.084 nM | EC50 (human IL-4RA-hFc [2]): 3 nM | OD 450 nm (human IL-4RA-hFc [3]): 0.053 OD
